Here are results for 1 sequence from article PMC3068679.

For data set [1], the target named is T1, MBP-Rv3124-His6 (MoaR1) (Mycobacterium tuberculosis (gDNA; strain H37Rv?)) (UniProt O05797).
T1 sequence: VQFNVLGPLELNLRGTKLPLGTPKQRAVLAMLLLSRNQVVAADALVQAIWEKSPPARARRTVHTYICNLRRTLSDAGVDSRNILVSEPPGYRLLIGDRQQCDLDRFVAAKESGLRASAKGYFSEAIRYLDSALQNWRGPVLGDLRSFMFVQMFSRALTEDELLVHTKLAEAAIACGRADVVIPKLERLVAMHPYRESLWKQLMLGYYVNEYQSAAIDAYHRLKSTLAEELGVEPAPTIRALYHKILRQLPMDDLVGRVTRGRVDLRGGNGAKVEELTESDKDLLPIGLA
Kind of data set: EMSA.

The target of data set [2] is T1, MBP-Rv3124-His6 (MoaR1) (Mycobacterium tuberculosis (gDNA; strain H37Rv?)). Description: competition.

“ATGGAGCTACCATATCAGGCAGCGTAGGCGTACTCATTTTCCTATCATCTTTTCGATCCTCCACTTTGGACGCAGTCGGTTAGAGCGCCTCAAGAGAGTTTCGTACAAGGGTTAACTAACAATCGTTACCGAAATGCATCGGCGCATCGTGGCGCAGCGCATGAGCCTGCGTTTATGGCGCGTTGTTAGGGCGGAATCCGACCACTCATGTGCGAGCTTTCGTT (double strand) [Rv3109pro (222 bp)]”: the binding result in data set [1] and in data set [2] was “binds” each time.
